T1: V3 peptide NY/5 (HIV-1 group M subtype B, isolate NY5, strain)
T1 chain: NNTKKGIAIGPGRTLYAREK

T2: V3 peptide of HIV-1 clade B strain MN (HIV-1 clade B, isolate MN)
T2 chain: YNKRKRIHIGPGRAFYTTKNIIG

B1: human monoclonal antibody 447-52D (IgG3, lambda) (antibody, V domains shown)
VH: EVQLVESGGGLVKPGGSLRLTCVASGFTFSDVWLNWVRQAPGKGLEWVGRIKSRTDGGTTDYAASVKGRFTISRDDSKNTLYLQMNSLKTEDTAVYSCTTDGFIMIRGVSEDYYYYYMDVWGKGTTVTVSS
VL: QSVLTQPPSVSAAPGQKVTISCSGSSSNIGNNYVLWYQQFPGTAPKLLIYGNNKRPSGIPDRFSGSKSGTSATLGITGLQTGDEADYFCATWDSGLSADWVFGGGTKLTVL
B2: Fab fragment of human monoclonal antibody 537-10D (Fab, V domains shown)
VH: QVQLVQSGGGLVQPGGSLRLSCVASGFTFNNYWMSWVRQAPGKGLEWVANIKQDGNDKYYVDSVKGRFTISRDNAKNSLFLQMNSLRAEDTAVYFCAREFSSYTDHLEYYYDYYYMDVWGKGTTVTVSS
VL: QSALTQPASVSGSPGQSITISCTGTSTDVNGYNYVSWYQQYAGKAPKLIIFDVSKRPSGVSNRFSGSKSGDTASLTISGLQAEDEADYHCSSYTSSTPYVLFGGGTKLTVL

Legend:
V3 peptide NY/5 = biological target: T1, V3 peptide NY/5; assay: ELISA
[1] = biological target: T2, V3 peptide of HIV-1 clade B strain MN; assay: crystal structure

Row | Binder | binding result (V3 peptide NY/5) | binding result [1]
1 | B1 | binds | 
2 | B2 |  | binds
